According to patent US20240132485A1, “HETEROCYCLIC CULLIN RING UBIQUITIN LIGASE COMPOUNDS AND USES THEREOF” (CEMM - FORSCHUNGSZENTRUM FÜR MOLEKULARE MEDIZIN GMBH, priority 2020, published 2024):

How the values were obtained:
[1] = target: Nanoluc_DDB1 (N-terminal Nanoluc luciferase, G4S linker, DDB1 (FL)) (UniProt Q16531); assay: NanoBRET in HEK293T cells, 10 µM compound Example 3-41; class C = 2-3 fold increase
[2] = target: Nanoluc_DDB1 (N-terminal Nanoluc luciferase, G4S linker, DDB1 (FL)) (UniProt Q16531); assay: NanoBRET in HEK293T cells, 10 µM compound Example 3-53; class B = 3-4 fold increase
[3] = target: Nanoluc_DDB1 (N-terminal Nanoluc luciferase, G4S linker, DDB1 (FL)) (UniProt Q16531); assay: NanoBRET in HEK293T cells, 10 µM compound Example 3-23; class B = 3-4 fold increase
[4] = target: Nanoluc_DDB1 (N-terminal Nanoluc luciferase, G4S linker, DDB1 (FL)) (UniProt Q16531); assay: NanoBRET in HEK293T cells, 10 µM compound Example 3-42; class A = greater than 4-fold increase
[5] = target: Nanoluc_DDB1 (N-terminal Nanoluc luciferase, G4S linker, DDB1 (FL)) (UniProt Q16531); assay: NanoBRET in HEK293T cells, 10 µM compound Example 3-5; class B = 3-4 fold increase

Nanoluc_DDB1 (N-terminal Nanoluc luciferase, G4S linker, DDB1 (FL)), sequence (Q16531 other isoform, or with tags, fused parts or gaps): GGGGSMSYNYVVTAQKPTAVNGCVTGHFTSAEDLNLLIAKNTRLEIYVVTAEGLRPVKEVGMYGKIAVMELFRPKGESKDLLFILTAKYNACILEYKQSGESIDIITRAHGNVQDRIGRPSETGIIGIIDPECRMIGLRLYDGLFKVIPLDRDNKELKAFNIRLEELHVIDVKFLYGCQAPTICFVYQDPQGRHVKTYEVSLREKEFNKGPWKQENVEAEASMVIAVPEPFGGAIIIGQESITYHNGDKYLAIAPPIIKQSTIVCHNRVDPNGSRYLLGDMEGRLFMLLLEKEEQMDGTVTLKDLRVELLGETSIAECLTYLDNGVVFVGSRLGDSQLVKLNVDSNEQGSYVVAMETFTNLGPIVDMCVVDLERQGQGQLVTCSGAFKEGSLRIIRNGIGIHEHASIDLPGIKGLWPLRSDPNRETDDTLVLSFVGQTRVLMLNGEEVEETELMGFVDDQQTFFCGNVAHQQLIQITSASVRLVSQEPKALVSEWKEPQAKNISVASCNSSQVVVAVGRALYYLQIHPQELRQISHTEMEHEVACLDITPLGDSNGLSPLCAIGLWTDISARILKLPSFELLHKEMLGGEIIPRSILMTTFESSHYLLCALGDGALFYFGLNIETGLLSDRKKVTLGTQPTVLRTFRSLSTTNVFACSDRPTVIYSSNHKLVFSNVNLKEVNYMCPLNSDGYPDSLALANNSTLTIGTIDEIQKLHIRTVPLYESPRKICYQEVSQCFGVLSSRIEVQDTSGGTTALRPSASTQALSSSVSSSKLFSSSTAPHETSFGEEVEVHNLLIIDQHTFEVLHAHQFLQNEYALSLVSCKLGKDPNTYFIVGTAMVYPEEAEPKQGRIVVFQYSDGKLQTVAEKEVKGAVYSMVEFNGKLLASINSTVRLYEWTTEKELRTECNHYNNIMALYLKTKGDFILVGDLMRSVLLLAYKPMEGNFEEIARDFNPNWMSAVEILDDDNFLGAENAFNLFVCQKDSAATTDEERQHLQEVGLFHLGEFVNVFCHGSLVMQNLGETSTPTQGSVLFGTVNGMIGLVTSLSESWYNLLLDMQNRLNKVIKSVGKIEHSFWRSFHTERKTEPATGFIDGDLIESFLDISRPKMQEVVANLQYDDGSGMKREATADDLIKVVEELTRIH

NanoBRET fold increase [1]: 2 to 3 fold | NanoBRET fold increase [2]: 3 to 4 fold | NanoBRET fold increase [3]: 3 to 4 fold | NanoBRET fold increase [4]: > 4 fold | NanoBRET fold increase [5]: 3 to 4 fold
Substance: HaloTag_CDK12 (N-terminal HaloTag, G4S linker, CDK12 (713-1052)) (from UniProt Q9NYV4 713-1052) (enzyme)
